One may read the stoichiometry N as a count of units in the complex or per binding partner. By EC50 is commonly meant the concentration that produces a half-maximal response. As a reminder, the Kd is the constant that tells how readily two partners part at equilibrium.

We go through seven molecules from PMC5138130 (Journal of molecular biology, 2016).

Changes are numbered by the printed parent chain. Numbers in names are those of the source. Where “and” joins values, the source holds several entries; their conditions need not be identical. Identical values can stand only once.

Data set [1] deals with Bni5(1–313) used for FFF-MALS (S. cerevisiae) (UniProt P53890). The experiment in a line: field-flow fractionation with multi-angle light scattering.
Data set [2] has as its target Otherwise Cys-less septin hetero-octamers capped with Cdc11(Δα0) E294C labeled with AF555 (S. cerevisiae) (UniProt P32458). Put plainly: FRET or BRET. In general terms: In BRET a luciferase serves as donor, and the signal depends on an acceptor being close.
In data set [3] the target is T1, (His)8-3C protease cleavage site-Bni5 fusion (wild-type Bni5) (S. cerevisiae), P53890.
T1 chain: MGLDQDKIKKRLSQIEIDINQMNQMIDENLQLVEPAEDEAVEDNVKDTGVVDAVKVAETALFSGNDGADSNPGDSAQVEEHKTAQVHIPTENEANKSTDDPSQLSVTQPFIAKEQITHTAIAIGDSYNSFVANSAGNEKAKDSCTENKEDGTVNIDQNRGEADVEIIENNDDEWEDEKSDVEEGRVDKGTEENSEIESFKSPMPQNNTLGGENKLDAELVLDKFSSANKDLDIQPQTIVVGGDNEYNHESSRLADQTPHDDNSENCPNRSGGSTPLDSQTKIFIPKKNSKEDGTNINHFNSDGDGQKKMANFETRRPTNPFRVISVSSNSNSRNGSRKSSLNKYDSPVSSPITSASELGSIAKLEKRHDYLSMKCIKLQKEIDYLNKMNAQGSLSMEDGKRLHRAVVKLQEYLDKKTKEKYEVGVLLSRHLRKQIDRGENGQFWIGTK
Put plainly: AUC. Particulars: remark: other sources report otherwise.

Data set [4] concerns the target T1, (His)8-3C protease cleavage site-Bni5 …. Put plainly: field-flow fractionation with multi-angle light scattering. Particulars: remark: other sources report otherwise.
Data set [5] addresses T2, (His)8-3C protease cleavage site-Bni5 fusion (wild-type Bni5) (S. cerevisiae, UniProt P53890 1-448).
T2 sequence (looked up): T1 chain
Put plainly: negative-stain electron microscopy with 2D class averages.

Data set [6] concerns the molecule itself. Described as above.

“Bni5(1–313) used for FFF-MALS (from UniProt P53890 1-313) (domain or fragment)”: the stoichiometry N in data set [1] was 2 and 4.

B1: Bni5(314–448) C375 labeled with AF647 (domain or fragment)
chain: TRRPTNPFRVISVSSNSNSRNGSRKSSLNKYDSPVSSPITSASELGSIAKLEKRHDYLSMKCIKLQKEIDYLNKMNAQGSLSMEDGKRLHRAVVKLQEYLDKKTKEKYEVGVLLSRHLRKQIDRGENGQFWIGTK
modifications: AF647 (Alexa Fluor 647 maleimide) on C375
Molecule B1 yielded a concentration giving a half-maximal response (EC50) in data set [2] of 0.614 µM.

B2: Bni5(C144R C266F) labeled with AF647 at C375 (natural protein)
chain: T1 chain with C144R, C266F
modifications: AF647 (Alexa Fluor 647 maleimide) on C375
B2 registered a Kd in data set [2] of 0.154 µM.

B3: (His)8-3C protease cleavage site-Bni5 fusion (wild-type Bni5), P53890 1-448 (natural protein)
chain: T1 chain
On to B3, for which the stoichiometry N was 2 in data set [3]; 2 and 4 in data set [4].

B4: Cdc11 (wild type), terminal subunit of the septin hetero-octamer (natural protein, S. cerevisiae, UniProt P32458 1-415, looked up)
chain: MSGIIDASSALRKRKHLKRGITFTVMIVGQSGSGRSTFINTLCGQQVVDTSTTILLPTDTSTEIDLQLREETVELEDDEGVKIQLNIIDTPGFGDSLDNSPSFEIISDYIRHQYDEILLEESRVRRNPRFKDGRVHCCLYLINPTGHGLKEIDVEFIRQLGSLVNIIPVISKSDSLTRDELKLNKKLIMEDIDRWNLPIYNFPFDEDEISDEDYETNMYLRTLLPFAIIGSNEVYEMGGDVGTIRGRKYPWGILDVEDSSISDFVILRNALLISHLHDLKNYTHEILYERYRTEALSGESVAAESIRPNLTKLNGSSSSSTTTRRNTNPFKQSNNINNDVLNPASDMHGQSTGENNETYMTREEQIRLEEERLKAFEERVQQELLLKRQELLQREKELREIEARLEKEAKIKQEE
Turning to B4, in data set [5], the binding result is given as “binds”.

B5: Cdc11-capped septin hetero-octamers containing Cdc10-GFP as the sole source of Cdc10 (complex, S. cerevisiae)
chain 1: B4 chain
chain 2: MSAATATAAPVPPPVGISNLPNQRYKIVNEEGGTFTVMLCGESGLGKTTFINTLFQTVLKRADGQQHRQEPIRKTVEIDITRALLEEKHFELRVNVIDTPGFGDNVNNNKAWQPLVDFIDDQHDSYMRQEQQPYRTKKFDLRVHAVLYFIRPTGHGLKPIDIETMKRLSTRANLIPVIAKADTLTAQELQQFKSRIRQVIEAQEIRIFTPPLDADSKEDAKSGSNPDSAAVEHARQLIEAMPFAIVGSEKKFDNGQGTQVVARKYPWGLVEIENDSHCDFRKLRALLLRTYLLDLISTTQEMHYETYRRLRLEGHENTGEGNEDFTLPAIAPARKLSHNPRYKEEENALKKYFTDQVKAEEQRFRQWEQNIVNERIRLNGDLEEIQGKVKKLEEQVKSLQVKKSHLK
chain 3: MSLKEEQVSIKQDPEQEERQHDQFNDVQIKQESQDHDGVDSQYTNGTQNDDSERFEAAESDVKVEPGLGMGITSSQSEKGQVLPDQPEIKFIRRQINGYVGFANLPKQWHRRSIKNGFSFNLLCVGPDGIGKTTLMKTLFNNDDIEANLVKDYEEELANDQEEEEGQGEGHENQSQEQRHKVKIKSYESVIEENGVKLNLNVIDTEGFGDFLNNDQKSWDPIIKEIDSRFDQYLDAENKINRHSINDKRIHACLYFIEPTGHYLKPLDLKFMQSVYEKCNLIPVIAKSDILTDEEILSFKKTIMNQLIQSNIELFKPPIYSNDDAENSHLSERLFSSLPYAVIGSNDIVENYSGNQVRGRSYPWGVIEVDNDNHSDFNLLKNLLIKQFMEELKERTSKILYENYRSSKLAKLGIKQDNSVFKEFDPISKQQEEKTLHEAKLAKLEIEMKTVFQQKVSEKEKKLQKSETELFARHKEMKEKLTKQLKALEDKKKQLELSINSASPNVNHSPVPTKKKGFLR
chain 4: MDPLSSVQPASYVGFDTITNQIEHRLLKKGFQFNIMVVGQSGLGKSTLINTLFASHLIDSATGDDISALPVTKTTEMKISTHTLVEDRVRLNINVIDTPGFGDFIDNSKAWEPIVKYIKEQHSQYLRKELTAQRERFITDTRVHAILYFLQPNGKELSRLDVEALKRLTEIANVIPVIGKSDTLTLDERTEFRELIQNEFEKYNFKIYPYDSEELTDEELELNRSVRSIIPFAVVGSENEIEINGETFRGRKTRWSAINVEDINQCDFVYLREFLIRTHLQDLIETTSYIHYEGFRARQLIALKENANSRSSAHMSSNAIQR
In the case of B5, in data set [6], the binding result is “binds”.

B6: Wild-type Cdc11-capped septin hetero-octamers (Cdc11-Cdc12-Cdc3-Cdc10-Cdc10-Cdc3-Cdc12-Cdc11) used for EM (complex, S. cerevisiae)
chain 1: B4 chain
chain 2: B5 chain 2
chain 3: B5 chain 3
chain 4: B5 chain 4
As for B6, in data set [6], the binding result is “binds”.
